Activity (EC50 relative to Val^8-GLP-1(7-37)OH), CRE-BLAM beta-lactamase reporter in HEK-293 cells expressing human GLP-1 receptor, Activity (EC50 relative to Val^8-GLP-1(7-37)OH, corrected for 2-fold molarity of the dimer), CRE-Luciferase reporter in HEK-293 cells stably expressing human GLP-1 receptor and Activity (EC50 relative to Val^8-GLP-1(7-37)OH), CRE-Luciferase reporter in HEK-293 cells stably expressing human GLP-1 receptor data for 4 substances are collected here from patent US20070253966A1.

For the assay, the target named is human GLP-1 receptor (human) (UniProt P43220). The assay can be described thus: cell-based or functional assay.
UniProt P43220, sequence (P43220 24-463): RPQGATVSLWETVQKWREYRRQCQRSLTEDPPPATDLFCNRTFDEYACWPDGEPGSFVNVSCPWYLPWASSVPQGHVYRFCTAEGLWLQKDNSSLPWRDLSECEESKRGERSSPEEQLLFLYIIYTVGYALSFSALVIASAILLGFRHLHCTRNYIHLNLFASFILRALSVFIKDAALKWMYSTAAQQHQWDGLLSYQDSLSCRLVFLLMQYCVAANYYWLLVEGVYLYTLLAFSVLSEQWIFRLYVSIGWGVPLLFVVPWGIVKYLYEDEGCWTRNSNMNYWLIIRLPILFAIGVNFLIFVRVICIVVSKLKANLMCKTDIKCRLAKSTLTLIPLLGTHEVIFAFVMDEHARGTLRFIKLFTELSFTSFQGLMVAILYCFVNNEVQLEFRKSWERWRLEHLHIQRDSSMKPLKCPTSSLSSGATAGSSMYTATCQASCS

“Gly^8-Glu^22-GLP-1(7-37)-1.5L-IgG4 (S228P, F234A, L235A) (from UniProt P01275 98-128) (Fc fusion)” returned an Activity (EC50 relative to Val^8-GLP-1(7-37)OH), CRE-BLAM beta-lactamase reporter in HEK-293 cells expressing human GLP-1 receptor of 314% and an Activity (EC50 relative to Val^8-GLP-1(7-37)OH, corrected for 2-fold molarity of the dimer), CRE-Luciferase reporter in HEK-293 cells stably expressing human GLP-1 receptor of 595%.

With “Gly^8-Glu^22-GLP-1(7-37)-1L-IgG4 (S228P, F234A, L235A) (from UniProt P01275 98-128) (Fc fusion)”, the Activity (EC50 relative to Val^8-GLP-1(7-37)OH), CRE-BLAM beta-lactamase reporter in HEK-293 cells expressing human GLP-1 receptor came out at 468% and the Activity (EC50 relative to Val^8-GLP-1(7-37)OH, corrected for 2-fold molarity of the dimer), CRE-Luciferase reporter in HEK-293 cells stably expressing human GLP-1 receptor amounted to 1120%.

In turn, “Gly^8-Glu^22-GLP-1(7-37)-2L-IgG4 (S228P, F234A, L235A) (from UniProt P01275 98-128) (Fc fusion)” had an Activity (EC50 relative to Val^8-GLP-1(7-37)OH), CRE-BLAM beta-lactamase reporter in HEK-293 cells expressing human GLP-1 receptor of 301% and an Activity (EC50 relative to Val^8-GLP-1(7-37)OH, corrected for 2-fold molarity of the dimer), CRE-Luciferase reporter in HEK-293 cells stably expressing human GLP-1 receptor of 535%.

Consider “Val^8-GLP-1(7-37)OH (from UniProt P01275 21-180) (peptide)”, for which the Activity (EC50 relative to Val^8-GLP-1(7-37)OH), CRE-BLAM beta-lactamase reporter in HEK-293 cells expressing human GLP-1 receptor was 100% and the Activity (EC50 relative to Val^8-GLP-1(7-37)OH), CRE-Luciferase reporter in HEK-293 cells stably expressing human GLP-1 receptor amounted to 100%.
